This series deals with T1, JUL1 (JULGI) (Arabidopsis thaliana).
T1 sequence: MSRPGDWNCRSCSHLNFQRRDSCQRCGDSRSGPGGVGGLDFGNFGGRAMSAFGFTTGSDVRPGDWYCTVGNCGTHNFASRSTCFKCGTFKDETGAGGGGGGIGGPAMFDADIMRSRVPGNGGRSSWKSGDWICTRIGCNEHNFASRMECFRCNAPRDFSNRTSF
The series can be described thus: EMSA. As to conditions: method inferred from context. A general note: Mobility shift assays separate free from complexed probe on a gel.

The source of these data is US20230176076.

In general, Kd refers to a measure of binding affinity in units of concentration. A higher Kd goes with a looser complex.

In the case of SMXL5 5'UTR G-quadruplex probe, the Kd amounted to 130 nM (with potassium) and 230 nM (without potassium).
